From article PMC4451422, “Catch me if you can: a biotinylated proteoliposome affinity assay for the investigation of assembly of the MexA-MexB-OprM efflux pump from Pseudomonas aeruginosa” (Frontiers in Microbiology, 2015) come the findings set out here.

Substitutions are numbered along the chain they refer to.

Holding throughout (assay): pull-down; MagStrep (streptavidin) magnetic beads sediment biotin-lipid proteoliposomes with MexB or MexAB; OprM in separate proteoliposomes; non-energized: 25 mM Hepes pH7, 100 mM K2SO4, 2 mM MgSO4; 20 min at room temperature; pellets on SDS-PAGE, Coomassie
Holding throughout (conditions): both partners purified

Assay [1] concerns the target T1, MexB (Pseudomonas aeruginosa, UniProt P52002 1-1046).
T1 construct: MexB, RND inner membrane transporter of the MexA-MexB-OprM efflux pump, Pseudomonas aeruginosa; Purified by the protocol of Mokhonov et al., 2005 with minor modifications; also called MexB alone; RND pump
T1 sequence: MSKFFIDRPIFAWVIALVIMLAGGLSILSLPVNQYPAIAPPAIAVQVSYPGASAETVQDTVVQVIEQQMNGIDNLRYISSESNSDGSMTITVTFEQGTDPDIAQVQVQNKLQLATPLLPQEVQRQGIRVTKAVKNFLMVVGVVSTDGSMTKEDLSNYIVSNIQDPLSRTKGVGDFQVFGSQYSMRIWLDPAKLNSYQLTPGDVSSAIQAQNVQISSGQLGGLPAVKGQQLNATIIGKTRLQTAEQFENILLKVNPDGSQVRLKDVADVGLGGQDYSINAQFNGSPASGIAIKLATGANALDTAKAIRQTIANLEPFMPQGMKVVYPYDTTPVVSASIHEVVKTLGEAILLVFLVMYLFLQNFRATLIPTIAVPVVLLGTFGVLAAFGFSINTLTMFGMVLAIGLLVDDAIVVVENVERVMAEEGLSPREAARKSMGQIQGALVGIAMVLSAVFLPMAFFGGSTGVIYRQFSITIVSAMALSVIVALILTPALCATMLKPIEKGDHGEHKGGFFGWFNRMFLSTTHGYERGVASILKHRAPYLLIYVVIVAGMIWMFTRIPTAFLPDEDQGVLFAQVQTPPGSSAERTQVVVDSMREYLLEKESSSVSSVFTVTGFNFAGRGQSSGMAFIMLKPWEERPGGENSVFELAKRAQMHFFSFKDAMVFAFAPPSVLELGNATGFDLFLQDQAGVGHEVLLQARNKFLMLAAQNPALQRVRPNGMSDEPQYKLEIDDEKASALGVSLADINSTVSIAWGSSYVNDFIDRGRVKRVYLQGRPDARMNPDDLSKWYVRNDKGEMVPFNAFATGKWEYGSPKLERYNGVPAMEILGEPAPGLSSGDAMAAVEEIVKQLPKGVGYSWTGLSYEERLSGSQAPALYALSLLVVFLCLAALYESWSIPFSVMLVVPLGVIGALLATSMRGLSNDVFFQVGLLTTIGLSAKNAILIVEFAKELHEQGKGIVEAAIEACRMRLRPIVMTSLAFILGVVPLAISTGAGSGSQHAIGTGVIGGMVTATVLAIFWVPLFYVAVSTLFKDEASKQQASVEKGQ

The target of assay [2] is T2, MexAB: MexA (palmitoylated) and MexB reconstituted together in biotinylated proteoliposomes (Pseudomonas aeruginosa, UniProt P52477 24-383; P52002 1-1046, palmitoylated (lipid anchor); residue not stated).
T2 construct: MexA, Pseudomonas aeruginosa, palmitoylated version; as m1; MexB, Pseudomonas aeruginosa; as m3; also called MexAB proteoliposomes; MexA and MexB; source: each protein from C43 ΔAcrB strain, purified; reconstituted together in proteoliposomes with biotinylated lipids
T2 sequence 1: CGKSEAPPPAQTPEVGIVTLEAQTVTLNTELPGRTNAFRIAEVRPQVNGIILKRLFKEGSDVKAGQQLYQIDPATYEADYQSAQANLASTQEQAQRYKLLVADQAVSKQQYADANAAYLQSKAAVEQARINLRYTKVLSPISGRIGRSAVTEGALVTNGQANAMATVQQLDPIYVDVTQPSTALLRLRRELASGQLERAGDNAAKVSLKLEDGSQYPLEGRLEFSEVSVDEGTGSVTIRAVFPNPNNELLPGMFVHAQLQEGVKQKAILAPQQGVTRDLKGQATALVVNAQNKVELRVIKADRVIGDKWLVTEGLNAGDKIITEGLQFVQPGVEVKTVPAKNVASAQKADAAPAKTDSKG
T2 sequence 2: T1 sequence

In assay [3] the target is T3, MexAB_(D407N): MexA (palmitoylated) and the inactive MexB D407N mutant reconstituted together in biotinylated … (Pseudomonas aeruginosa, UniProt P52477 24-383; P52002 1-1046, D407N, palmitoylated (lipid anchor); residue not stated).
T3 construct: MexA, Pseudomonas aeruginosa, palmitoylated version; as m1; also called MexA and MexB_(D407N); source: reconstituted together in proteoliposomes with biotinylated lipids
T3 sequence (looked up) 1: T2 sequence 1
T3 sequence (looked up) 2: T1 sequence with D407N

B1: MexAnp, truncated "cysteine-less" form of MexA without its first 24 residues (non-palmitoylated, soluble) (domain or fragment)
chain: GKSEAPPPAQTPEVGIVTLEAQTVTLNTELPGRTNAFRIAEVRPQVNGIILKRLFKEGSDVKAGQQLYQIDPATYEADYQSAQANLASTQEQAQRYKLLVADQAVSKQQYADANAAYLQSKAAVEQARINLRYTKVLSPISGRIGRSAVTEGALVTNGQANAMATVQQLDPIYVDVTQPSTALLRLRRELASGQLERAGDNAAKVSLKLEDGSQYPLEGRLEFSEVSVDEGTGSVTIRAVFPNPNNELLPGMFVHAQLQEGVKQKAILAPQQGVTRDLKGQATALVVNAQNKVELRVIKADRVIGDKWLVTEGLNAGDKIITEGLQFVQPGVEVKTVPAKNVASAQKADAAPAKTDSKG
notes: MexA, Pseudomonas aeruginosa, without its first 24 residues; non-palmitoylated, soluble; no point mutation is printed; also called soluble version of MexA; soluble MexA; source: generated in the laboratory, produced and purified
Consider B1, for which, in assay [1], the binding result is on record as “binds”.

B2: OprM (natural protein)
chain: CSLIPDYQRPEAPVAAAYPQGQAYGQNTGAAAVPAADIGWREFFRDPQLQQLIGVALENNRDLRVAALNVEAFRAQYRIQRADLFPRIGVDGSGTRQRLPGDLSTTGSPAISSQYGVTLGTTAWELDLFGRLRSLRDQALEQYLATEQAQRSAQTTLVASVATAYLTLKADQAQLQLTKDTLGTYQKSFDLTQRSYDVGVASALDLRQAQTAVEGARATLAQYTRLVAQDQNALVLLLGSGIPANLPQGLGLDQTLLTEVPAGLPSDLLQRRPDILEAEHQLMAANASIGAARAAFFPSISLTANAGTMSRQLSGLFDAGSGSWLFQPSINLPIFTAGSLRASLDYAKIQKDINVAQYEKAIQTAFQEVADGLAARGTFTEQLQAQRDLVKASDEYYQLADKRYRTGVDNYLTLLDAQRSLFTAQQQLITDRLNQLTSEVNLYKALGGGWNQQTVTQQQTAKKEDPQA
notes: OprM, outer membrane channel of the MexA-MexB-OprM efflux pump, Pseudomonas aeruginosa; Purified by the protocol of Phan et al., 2010 with minor modifications; also called OMF; OprM proteoliposomes
With B2, the binding result in assay [2] and in assay [3] was “binds” each time.
